# Literature values as cited in patent US10190113B2, “Methods and compositions for segregating target nucleic acid from mixed nucleic acid samples” (FLIR DETECTION, INC., priority 2011, dated 2019).
# Several values for one entry are separate records, joined by “and”; a condition that tells them apart may be missing. Identical values can stand only once.
# Test system: nucleic acid recognition or cleavage site
# Conditions: mutant restriction enzyme relative to wild type; cited from earlier work
row,Molecule,% of WT cleavage activity
1,"EcoRV Y72N: EcoRV restriction enzyme with mutation Y72N (protein, UniProt P04390 2-245, looked up, variant Y72N) Type II restriction enzyme …: SLRSDLINALYDENQKYDVCGIISAEGKIYPLGSDTKVLSTIFELFSRPIINKIAEKHGYIVEEPKQQNHNPDFTLYKPSEPNKKIAIDIKTTYTNKENEKIKFTLGGYTSFIRNNTKNIVYPFDQYIAHWIIGYVYTRVATRKSSLKTYNINELNEIPKPYKGVKVFLQDKWVIAGDLAGSGNTTNIGSIHAHYKDFVEGKGIFDSEDEFLDYWRNYERTSQLRNDKYNNISEYRNWIYRGRK",<0.1%
2,"EcoRV D90T: EcoRV restriction enzyme with mutation D90T (protein, UniProt P04390 2-245, looked up, variant D90T) Type II restriction enzyme …: SLRSDLINALYDENQKYDVCGIISAEGKIYPLGSDTKVLSTIFELFSRPIINKIAEKHGYIVEEPKQQNHYPDFTLYKPSEPNKKIAITIKTTYTNKENEKIKFTLGGYTSFIRNNTKNIVYPFDQYIAHWIIGYVYTRVATRKSSLKTYNINELNEIPKPYKGVKVFLQDKWVIAGDLAGSGNTTNIGSIHAHYKDFVEGKGIFDSEDEFLDYWRNYERTSQLRNDKYNNISEYRNWIYRGRK",0%
3,"EcoRV D74A: EcoRV restriction enzyme with mutation D74A (protein, UniProt P04390 2-245, looked up, variant D74A) Type II restriction enzyme …: SLRSDLINALYDENQKYDVCGIISAEGKIYPLGSDTKVLSTIFELFSRPIINKIAEKHGYIVEEPKQQNHYPAFTLYKPSEPNKKIAIDIKTTYTNKENEKIKFTLGGYTSFIRNNTKNIVYPFDQYIAHWIIGYVYTRVATRKSSLKTYNINELNEIPKPYKGVKVFLQDKWVIAGDLAGSGNTTNIGSIHAHYKDFVEGKGIFDSEDEFLDYWRNYERTSQLRNDKYNNISEYRNWIYRGRK",0%
4,"EcoRV P73T: EcoRV restriction enzyme with mutation P73T (protein, UniProt P04390 2-245, looked up, variant P73T) Type II restriction enzyme …: SLRSDLINALYDENQKYDVCGIISAEGKIYPLGSDTKVLSTIFELFSRPIINKIAEKHGYIVEEPKQQNHYTDFTLYKPSEPNKKIAIDIKTTYTNKENEKIKFTLGGYTSFIRNNTKNIVYPFDQYIAHWIIGYVYTRVATRKSSLKTYNINELNEIPKPYKGVKVFLQDKWVIAGDLAGSGNTTNIGSIHAHYKDFVEGKGIFDSEDEFLDYWRNYERTSQLRNDKYNNISEYRNWIYRGRK",0%
5,"EcoRV K92R: EcoRV restriction enzyme with mutation K92R (protein, UniProt P04390 2-245, looked up, variant K92R) Type II restriction enzyme …: SLRSDLINALYDENQKYDVCGIISAEGKIYPLGSDTKVLSTIFELFSRPIINKIAEKHGYIVEEPKQQNHYPDFTLYKPSEPNKKIAIDIRTTYTNKENEKIKFTLGGYTSFIRNNTKNIVYPFDQYIAHWIIGYVYTRVATRKSSLKTYNINELNEIPKPYKGVKVFLQDKWVIAGDLAGSGNTTNIGSIHAHYKDFVEGKGIFDSEDEFLDYWRNYERTSQLRNDKYNNISEYRNWIYRGRK",0%
6,"EcoRV E45D: EcoRV restriction enzyme with mutation E45D (protein, UniProt P04390 2-245, looked up, variant E45D) Type II restriction enzyme …: SLRSDLINALYDENQKYDVCGIISAEGKIYPLGSDTKVLSTIFDLFSRPIINKIAEKHGYIVEEPKQQNHYPDFTLYKPSEPNKKIAIDIKTTYTNKENEKIKFTLGGYTSFIRNNTKNIVYPFDQYIAHWIIGYVYTRVATRKSSLKTYNINELNEIPKPYKGVKVFLQDKWVIAGDLAGSGNTTNIGSIHAHYKDFVEGKGIFDSEDEFLDYWRNYERTSQLRNDKYNNISEYRNWIYRGRK",<0.3%
7,"EcoRV E45A: EcoRV restriction enzyme with mutation E45A (protein, UniProt P04390 2-245, looked up, variant E45A) Type II restriction enzyme …: SLRSDLINALYDENQKYDVCGIISAEGKIYPLGSDTKVLSTIFALFSRPIINKIAEKHGYIVEEPKQQNHYPDFTLYKPSEPNKKIAIDIKTTYTNKENEKIKFTLGGYTSFIRNNTKNIVYPFDQYIAHWIIGYVYTRVATRKSSLKTYNINELNEIPKPYKGVKVFLQDKWVIAGDLAGSGNTTNIGSIHAHYKDFVEGKGIFDSEDEFLDYWRNYERTSQLRNDKYNNISEYRNWIYRGRK",<0.1%
8,"EcoRV I91L: EcoRV restriction enzyme with mutation I91L (protein, UniProt P04390 2-245, looked up, variant I91L) Type II restriction enzyme …: SLRSDLINALYDENQKYDVCGIISAEGKIYPLGSDTKVLSTIFELFSRPIINKIAEKHGYIVEEPKQQNHYPDFTLYKPSEPNKKIAIDLKTTYTNKENEKIKFTLGGYTSFIRNNTKNIVYPFDQYIAHWIIGYVYTRVATRKSSLKTYNINELNEIPKPYKGVKVFLQDKWVIAGDLAGSGNTTNIGSIHAHYKDFVEGKGIFDSEDEFLDYWRNYERTSQLRNDKYNNISEYRNWIYRGRK",<0.1%
9,"EcoRV P73A: EcoRV restriction enzyme with mutation P73A (two citations) (protein, UniProt P04390 2-245, looked up, variant P73A) Type II restriction enzyme …: SLRSDLINALYDENQKYDVCGIISAEGKIYPLGSDTKVLSTIFELFSRPIINKIAEKHGYIVEEPKQQNHYADFTLYKPSEPNKKIAIDIKTTYTNKENEKIKFTLGGYTSFIRNNTKNIVYPFDQYIAHWIIGYVYTRVATRKSSLKTYNINELNEIPKPYKGVKVFLQDKWVIAGDLAGSGNTTNIGSIHAHYKDFVEGKGIFDSEDEFLDYWRNYERTSQLRNDKYNNISEYRNWIYRGRK",<0.1% and 1%
10,"EcoRV D74E: EcoRV restriction enzyme with mutation D74E (protein, UniProt P04390 2-245, looked up, variant D74E) Type II restriction enzyme …: SLRSDLINALYDENQKYDVCGIISAEGKIYPLGSDTKVLSTIFELFSRPIINKIAEKHGYIVEEPKQQNHYPEFTLYKPSEPNKKIAIDIKTTYTNKENEKIKFTLGGYTSFIRNNTKNIVYPFDQYIAHWIIGYVYTRVATRKSSLKTYNINELNEIPKPYKGVKVFLQDKWVIAGDLAGSGNTTNIGSIHAHYKDFVEGKGIFDSEDEFLDYWRNYERTSQLRNDKYNNISEYRNWIYRGRK",0%
11,"EcoRV D74N: EcoRV restriction enzyme with mutation D74N (protein, UniProt P04390 2-245, looked up, variant D74N) Type II restriction enzyme …: SLRSDLINALYDENQKYDVCGIISAEGKIYPLGSDTKVLSTIFELFSRPIINKIAEKHGYIVEEPKQQNHYPNFTLYKPSEPNKKIAIDIKTTYTNKENEKIKFTLGGYTSFIRNNTKNIVYPFDQYIAHWIIGYVYTRVATRKSSLKTYNINELNEIPKPYKGVKVFLQDKWVIAGDLAGSGNTTNIGSIHAHYKDFVEGKGIFDSEDEFLDYWRNYERTSQLRNDKYNNISEYRNWIYRGRK",1.5%
12,"EcoRV K92A: EcoRV restriction enzyme with mutation K92A (protein, UniProt P04390 2-245, looked up, variant K92A) Type II restriction enzyme …: SLRSDLINALYDENQKYDVCGIISAEGKIYPLGSDTKVLSTIFELFSRPIINKIAEKHGYIVEEPKQQNHYPDFTLYKPSEPNKKIAIDIATTYTNKENEKIKFTLGGYTSFIRNNTKNIVYPFDQYIAHWIIGYVYTRVATRKSSLKTYNINELNEIPKPYKGVKVFLQDKWVIAGDLAGSGNTTNIGSIHAHYKDFVEGKGIFDSEDEFLDYWRNYERTSQLRNDKYNNISEYRNWIYRGRK",<0.1%
13,"EcoRV D90N: EcoRV restriction enzyme with mutation D90N (two citations) (protein, UniProt P04390 2-245, looked up, variant D90N) Type II restriction enzyme …: SLRSDLINALYDENQKYDVCGIISAEGKIYPLGSDTKVLSTIFELFSRPIINKIAEKHGYIVEEPKQQNHYPDFTLYKPSEPNKKIAINIKTTYTNKENEKIKFTLGGYTSFIRNNTKNIVYPFDQYIAHWIIGYVYTRVATRKSSLKTYNINELNEIPKPYKGVKVFLQDKWVIAGDLAGSGNTTNIGSIHAHYKDFVEGKGIFDSEDEFLDYWRNYERTSQLRNDKYNNISEYRNWIYRGRK",0%
14,"EcoRV D90A: EcoRV restriction enzyme with mutation D90A (protein, UniProt P04390 2-245, looked up, variant D90A) Type II restriction enzyme …: SLRSDLINALYDENQKYDVCGIISAEGKIYPLGSDTKVLSTIFELFSRPIINKIAEKHGYIVEEPKQQNHYPDFTLYKPSEPNKKIAIAIKTTYTNKENEKIKFTLGGYTSFIRNNTKNIVYPFDQYIAHWIIGYVYTRVATRKSSLKTYNINELNEIPKPYKGVKVFLQDKWVIAGDLAGSGNTTNIGSIHAHYKDFVEGKGIFDSEDEFLDYWRNYERTSQLRNDKYNNISEYRNWIYRGRK",0%
15,"EcoRV E45Q: EcoRV restriction enzyme with mutation E45Q (protein, UniProt P04390 2-245, looked up, variant E45Q) Type II restriction enzyme …: SLRSDLINALYDENQKYDVCGIISAEGKIYPLGSDTKVLSTIFQLFSRPIINKIAEKHGYIVEEPKQQNHYPDFTLYKPSEPNKKIAIDIKTTYTNKENEKIKFTLGGYTSFIRNNTKNIVYPFDQYIAHWIIGYVYTRVATRKSSLKTYNINELNEIPKPYKGVKVFLQDKWVIAGDLAGSGNTTNIGSIHAHYKDFVEGKGIFDSEDEFLDYWRNYERTSQLRNDKYNNISEYRNWIYRGRK",<0.3%
16,"BamHI T153I: BamHI restriction enzyme with mutation T153I (listed twice) (protein, UniProt P23940 1-213, looked up, variant T153I) Type II restriction enzyme …: MEVEKEFITDEAKELLSKDKLIQQAYNEVKTSICSPIWPATSKTFTINNTEKNCNGVVPIKELCYTLLEDTYNWYREKPLDILKLEKKKGGPIDVYKEFIENSELKRVGMEFETGNISSAHRSMNKLLLGLKHGEIDLAIILMPIKQLAYYLIDRVTNFEELEPYFELTEGQPFIFIGFNAEAYNSNVPLIPKGSDGMSKRSIKKWKDKVENK",0.1% and 1%
17,"BamHI T114I: BamHI restriction enzyme with mutation T114I (protein, UniProt P23940 1-213, looked up, variant T114I) Type II restriction enzyme …: MEVEKEFITDEAKELLSKDKLIQQAYNEVKTSICSPIWPATSKTFTINNTEKNCNGVVPIKELCYTLLEDTYNWYREKPLDILKLEKKKGGPIDVYKEFIENSELKRVGMEFEIGNISSAHRSMNKLLLGLKHGEIDLAIILMPIKQLAYYLTDRVTNFEELEPYFELTEGQPFIFIGFNAEAYNSNVPLIPKGSDGMSKRSIKKWKDKVENK",1%
